Data published in article PMC10329019, “Membrane translocation process revealed by in situ structures of type II secretion system secretins” (Nature Communications, 2023).

What was measured:
[1] = biological target: the molecule itself; experiment: cryo-EM structure; in situ cryo-ET subtomogram averaging of particles on the outer membrane of E. coli minicells overexpressing GspDβ and GspS; 514 particles, C15 symmetry, 19 Å; C5 refinement as a test of symmetry
[2] = biological target: the molecule itself; experiment: cryo-EM structure; in situ cryo-ET subtomogram averaging of particles on the outer membrane of E. coli minicells overexpressing only GspDβ; 723 particles, C15 symmetry, 16 Å; C5 refinement as a test of symmetry
[3] = biological target: the molecule itself; experiment: cryo-EM structure; in situ cryo-ET subtomogram averaging of GspDα particles on the inner membrane of E. coli BL21 (DE3) minicells; about 32,000 particles, C15 symmetry, 9 Å; particle radius histogram

B1: GspDβ secretin (ETEC H10407 strain) with hexahistidine tag, from pETDuet-gspDβ-his-gspS, co-expressed with GspS (natural protein, UniProt E3PJ86 41-686, looked up)
chain: EEATFTANFKDTDLKSFIETVGANLNKTIIMGPGVQGKVSIRTMTPLNERQYYQLFLNLLEAQGYAVVPMENDVLKVVKSSAAKVEPLPLVGEGSDNYAGDEMVTKVVPVRNVSVRELAPILRQMIDSAGSGNVVNYDPSNVIMLTGRASVVERLTEVIQRVDHAGNRTEEVIPLDNASASEIARVLESLTKNSGENQPATLKSQIVADERTNSVIVSGDPATRDKMRRLIRRLDSEMERSGNSQVFYLKYSKAEDLVDVLKQVSGTLTAAKEEAEGTVGSGREIVSIAASKHSNALIVTAPQDIMQSLQSVIEQLDIRRAQVHVEALIVEVAEGSNINFGVQWASKDAGLMQFANGTQIPIGTLGAAISQAKPQKGSTVISENGATTINPDTNGDLSTLAQLLSGFSGTAVGVVKGDWMALVQAVKNDSSSNVLSTPSITTLDNQEAFFMVGQDVPVLTGSTVGSNNSNPFNTVERKKVGIMLKVTPQINEGNAVQMVIEQEVSKVEGQTSLDVVFGERKLKTTVLANDGELIVLGGLMDDQAGESVAKVPLLGDIPLIGNLFKSTADKKEKRNLMVFIRPTILRDGMAADGVSQRKYNYMRAEQIYRDEQGLSLMPHTAQPVLPAQNQALPPEVRAFLNAGRTR
notes: GspDβ, Vibrio-type type II secretion system secretin encoded in the T2SSβ operon, ETEC H10407 strain; Probably the same C-terminally tagged chain as m2 (surmised); also called Vibrio-type secretin; copies: 15
stoichiometry N [1]: 15

B2: GspDβ secretin (ETEC H10407 strain) with C-terminal hexahistidine tag, from pETDuet-gspDβ-his, expressed alone (natural protein, UniProt E3PJ86 41-686, looked up)
chain: B1 chain
notes: GspDβ, Vibrio-type type II secretion system secretin encoded in the T2SSβ operon, ETEC H10407 strain; The results name BL21(DE3) for this experiment, the methods name Rosetta (DE3) for cryo-ET imaging; also called Vibrio-type secretin; source: E. coli Rosetta (DE3) minicells (co-transformed with pBS58), pETDuet-gspDβ-his, overexpressed, imaged in the cells; copies: 15
stoichiometry N [2]: 15

B3: GspDα secretin (E. coli K12 strain), no tag (natural protein, UniProt P45758 24-650, looked up)
chain: ENEQYGANFNNADIRQFVEIVGQHLGKTILIDPSVQGTISVRSNDTFSQQEYYQFFLSILDLYGYSVITLDNGFLKVVRSANVKTSPGMIADSSRPGVGDELVTRIVPLENVPARDLAPLLRQMMDAGSVGNVVHYEPSNVLILTGRASTINKLIEVIKRVDVIGTEKQQIIHLEYASAEDLAEILNQLISESHGKSQMPALLSAKIVADKRTNSLIISGPEKARQRITSLLKSLDVEESEEGNTRVYYLKYAKATNLVEVLTGVSEKLKDEKGNARKPSSSGAMDNVAITADEQTNSLVITADQSVQEKLATVIARLDIRRAQVLVEAIIVEVQDGNGLNLGVQWANKNVGAQQFTNTGLPIFNAAQGVADYKKNGGITSANPAWDMFSAYNGMAAGFFNGDWGVLLTALASNNKNDILATPSIVTLDNKLASFNVGQDVPVLSGSQTTSGDNVFNTVERKTVGTKLKVTPQVNEGDAVLLEIEQEVSSVDSSSNSTLGPTFNTRTIQNAVLVKTGETVVLGGLLDDFSKEQVSKVPLLGDIPLVGQLFRYTSTERAKRNLMVFIRPTIIRDDDVYRSLSKEKYTRYRQEQQQRIDGKSKALVGSEDLPVLDENTFNSHAPAPSSR
notes: The untagged vector was used for cryo-ET imaging; the His-tagged one only for blots; also called Klebsiella-type secretin; GspDα multimer; copies: 15
stoichiometry N [3]: 15
